Laboratory results reported in patent US20240189424A1 (published 2024).

T1: Soluble monomeric B7H6-His (UniProt Q68D85 25-262, limits assumed)
T1 construct: extracellular domain; also called monovalent B7H6; soluble B7H6; not shown: C-terminal Avi-tag and 6xHis-tag
T1 sequence (looked up): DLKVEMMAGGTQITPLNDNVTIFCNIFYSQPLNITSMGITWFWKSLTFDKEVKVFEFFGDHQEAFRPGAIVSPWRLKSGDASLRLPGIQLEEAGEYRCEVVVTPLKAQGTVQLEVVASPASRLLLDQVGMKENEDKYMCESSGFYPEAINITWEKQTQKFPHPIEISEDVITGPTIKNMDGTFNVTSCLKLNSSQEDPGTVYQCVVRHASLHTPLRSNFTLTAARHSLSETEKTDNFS

B1: CC5-Fc (Fc fusion)
chain: LWVSQPPEIRTLEGSSAFLPCSFNASQGRLAIGSVTWFRDEVVPGKEVRNGTPEFRGRLAPLAPSRFLHDHQAELHIRDVRGHDASIYVCRVEVLGLGVGTGNGTRLVVEKEHPQLG
notes: also called clone CC5; not shown: mouse IgG2a Fc domain
B2: NKp30-Fc (Fc fusion)
chain: LWVSQPPEIRTLEGSSAFLPCSFNASQGRLAIGSVTWFRDEVVPGKEVRNGTPEFRGRLAPLASSRFLHDHQAELHIRDVRGHDASIYVCRVEVLGLGVGTGNGTRLVVEKEHPQLG
notes: Extracellular domain of NKp30 fused to a mouse IgG2a Fc domain, expressed in expi293 HEK cells, bivalent; also called native NKp30; wildtype NKp30; not shown: mouse IgG2a Fc domain

Tests used:
[1] = molecular target: T1, Soluble monomeric B7H6-His; assay: BLI (Octet RED96), Fc fusion on Protein A tips, monovalent B7H6-His in solution, steady state affinity
Method: (§1) BioLayer Interferometry (BLI) measurements of affinity KD were obtained using the ForteBio Octet RED96 system as previously described. Briefly, Protein A-coated biosensor tips were “activated” by incubation with 41 nM TZ47-Fc, NKp30-Fc, or CC3-Fc for 10 min to load tips. Binding to soluble B7H6-His were assessed by allowing TZ47-Fc, NKp30-Fc, or CC3-Fc coated tips to equilibrate in PBS+0.1% Tween-20 (PBST) for 5 min, followed by association steps in 200 μL of each antigen at concentrations ranging from 0 to 3000 nM for 10 min, and dissociation steps in 200 µL of PBST for 5 min. Data was analyzed using Octet® System Data Analysis software.
(§2) Clone CC5, which contains only the consensus S82P mutation, along with CC3, which had two additional amino acid substitutions, were chosen for further characterization. To define binding affinities and kinetics with improved resolution, CC3, CC5, NKp30, and TZ47 sequences were expressed recombinantly as Fc fusion proteins. Affinity to monovalent B7H6 was determined by Biolayer Interferometry (BLI). […] The fast on and off rate profile of NKp30 was maintained in the variants despite the increase in overall affinity.

[2] = molecular target: T1, Soluble monomeric B7H6-His; assay: BLI, Fc fusion on Protein A tips, monovalent B7H6-His
Method: as §1, §2

Molecule | Kd [1] [nM] | fold improvement of KD compared to NKp30 [2] [fold]
CC3-Fc (from UniProt O14931 19-135) (Fc fusion) | 680 | 2
B1 | 580 | 2
B2 | 1300 | –
